Assay results as given in patent US11733246B2, “Compositions, imaging, and therapeutic methods targeting folate receptor 1 (FOLR1)” (Indi Molecular, Inc., priority 2020, dated 2023).
Each block holds one compound with its values, some of them ahead of it. Numbered stars: 1 amine (or outer) side, 2 acyl side, 3 side chain; on linkers, the order of the positions; unused ones are H or OH. Bridge positions count the residues as written; N and C are the ends. Square brackets hold non-standard residues; d marks the D form. Triazole bridges read from a SMILES are 1,4-linked. Ends that are not written are not given here. Peptide text beside a SMILES is read from it. * marks the point of attachment. DOTA = O=C(O)CN1CCN(CC(=O)O)CCN(CC(=O)*)CCN(CC(=O)O)CC1; Pteroyl = Nc1nc2ncc(CNc3ccc(C(=O)*)cc3)nc2c(=O)[nH]1; Butanoyl(4-(4-I-phenyl)) = O=C(CCCc1ccc(I)cc1)*; Lys(N3) = [N-]=[N+]=NCCCC[C@H](N)C(=O)O; γGlu = O=C(O)[C@H](CCC(=O)[*:2])N[*:1]; X3 = O=C(CO/N=C/c1ccc(F)cc1)*; AEEEA = NCCOCCOCCOCC(=O)O; Pra = C#CC[C@H](N)C(=O)O; X2 = NOCC(=O)*

Key:
[1] = Plasma stability, mouse; conditions: Mu; for half-life at 2 μM: CD-1, mouse, pH 7.4, Plasma Stability (t 1/2)
Procedure: (§5) Plasma was thawed in a 37° C. water bath. Residual clots were removed via centrifugation at 4000 rpm for 5 minutes. The pH of the plasma was adjusted to 7.4 if required. Test articles were diluted to 100 μM by diluting a 1 mM working solution (in DMSO) with 45% methanol in water. To 98 μL of plasma was added 2 μL of the 100 μM solution, resulting in 2 μM final concentration of the test article. Samples were incubated at 37° C. in a water bath. At the indicated time points (0, 10, 30, 60, 120 minutes) 100 μL of 4% H3PO4 was added followed by 800 μL of stop solution (200 ng/mL tolbutamide and 200 ng/mL labetalol in 100% acetonitrile). The samples were centrifuged and the plasma protein-free supernatant (100 μL) was subjected to LC-MS/MS analysis.

[2] = Plasma stability, human; conditions: Hu; for half-life at 2 μM: pH 7.4, Plasma Stability (t 1/2)
Procedure: as §5

[3] = system: OVCAR3 (FOLR1+) tumor bearing NSG mice; experiment: in vivo; conditions: mouse
Procedure: Female, 7-week-old NSG mice were housed under pathogen-free conditions. Water and food were provided ad libitum. To create mice with FOLR1+ ovarian xenograft tumors, mice were injected subcutaneously with OVCAR3 cells (1×10^7 cells per mouse) resuspended in 50% Matrigel in PBS into the shoulder region. Tumor growth was monitored by caliper measurements. OVCAR3 is a human ovarian adenocarcinoma known to over-express FOLR1.
^68Ga PET imaging was used to study in vivo biodistribution of heterobiligands in non-tumor bearing (healthy) mice and OVCAR3 tumor bearing mice. 100-200 μCi of [^68Ga]DOTA-labeled heterobiligand was administered intravenously (i.v.) via the tail vein of each mouse. Dynamic PET imaging was performed from 0-1 h, followed by acquisition of static PET images at 2 h and 4 h post-injection. CT scans were acquired for anatomical reference. Imaging was performed on an Inveon microPET/CT small animal scanner. The PET signal was quantitated by three-dimensional ROI analysis and represented as percent injected dose (% ID) vs. time ([…]) for major organs including tumor, liver, heart, lung, bladder, and kidney.
Evaluation of a folate-hshta (SEQ ID NO:6) Nterm heterobiligand bearing both an albumin binder and DOTA chelator in PET was a priority, given that DOTA can accommodate both ^68Ga for imaging and ^177Lu for radiotherapy. A 200 μCi dose of ^68Ga-labeled folate-hshta-PEG3-Lys(MPBA)-Lys(DOTA) (SEQ ID NO:6) (compound #2809) was injected i.v. via tail vein in an NSG mouse bearing s.c. human OVCAR3 (FOLR1+) tumor. ^68Ga PET/CT imaging scans were performed at 0-1 h (dynamic), 2 h (static), and 4 h (static). […] The time-course biodistribution of ^68Ga-labeled folate-hshta-PEG3-Lys(MPBA)-Lys(DOTA) (SEQ ID NO:6) (compound #2809) was calculated to quantify the uptake in major organs including the tumor (FIG. 17). […] Larger tumors (490 mm^3) were also evaluated with the ^68Ga-chelated PET probe.
Images were captured for compound #1307 at the time points 5 min, 10 min, 15 min, 30 min, 1 h, 2 h, and 4 h. PET/CT images were taken following the injection of 4 female NSG mice with ^68Ga-chelated compound #2809. […] Images for mouse 4 are shown in FIG. 23 (Compounds #1307 and #2809) and FIG. 24 (Compound #1307).
Biodistribution was initially evaluated by PET imaging, as the time frame for a significant portion of clearance is roughly similar to the time frame of PET imaging experiments. Indi ^68Ga-7327 was injected via the tail vein into OVCAR3 (FOLR+) tumor implanted female NSG mice once the tumor size reached 200 mm^3, and microPET/CT scans were acquired at 5 min, 10 min, 15 min, 30 min, 1 h, 2 h, and 4 h post-injection. PET images were corrected for CT-based photon attenuation, detector normalization and radioisotope decay and converted to units of percent injected dose per cc (% ID/cc).

[4] = molecular target: human recombinant NEP (Homo sapiens, UniProt P08473); type: biochemical
Procedure: In order to test the susceptibility of GFK and MVK linkers to NEP-mediated cleavage, the peptide (Folate-hshta-Lys(MPBA)-Gly-Phe-Lys(DOTA) (SEQ ID NO:6)) was incubated with human recombinant NEP and analyzed the solution for the presence of cleaved adducts. MALDI was utilized to monitor the cleavage of a PCC heterobiligand that contains a NEP protease recognizable sequence (G-F-K). The PCC concentration was constant and the NEP concentration was titrated down from 10 nM to 1 nM, 0.1 nM, 0.01 nM, and no NEP. The NEP-mediated cleaved adduct was identified by mass. 10 μM PCC containing the GFK linker was combined with varying amounts of NEP. […] Below 0.1 nM no cleavage was observed. • Folate-hshta-Lys(MPBA)-Gly-Phe-Lys(DOTA) (SEQ ID NO:6) • Molecular weight 2231.42
The NEP-mediated cleavage was also monitored by HPLC. In agreement with the MALDI spectra, the HPLC chromatograms show depletion of the parent brush-border heterobiligand (retention time 17.1 minutes), dose-dependent on the amount of NEP spiked into the sample (10 nM, 1 nM, 0.1 nM, 0.01 nM, and no NEP). An appearance of a new peak (retention time 16.5 minutes) in concert with the depletion of the starting material is presumed to be the cleaved folate-containing peptide.
In order to test the specificity of NEP, a non-cleavable linker (PEG3) was also assayed.
To reduce the radioactive dose to the kidney, Indi ^177Lu-7327 was constructed to incorporate a GFK linker that is susceptible to cleavage by enzymes found predominately in the kidney's brush border. These enzymes cleave off the radionuclide-chelator complex, which is quickly eliminated by the kidney for excretion in the urine. The zinc metalloprotease neprilysin (NEP) is expressed with high abundance in the kidney. […] To confirm NEP-mediated cleavage of the GFK linker in Indi 7327, the peptide was incubated with recombinant human NEP at 37° C. for 1 h and analyzed by matrix-assisted laser desorption/ionization mass spectrometry (MALDI-MS) for the evolution of cleaved adducts (FIG. 42). […] The expected cleaved adduct (mass: 1283.16 m/z) appears in the samples containing 10, 1.0, and 0.1 nM NEP. […] Below 0.1 nM NEP, no cleavage was observed. In addition to confirming the selectivity of NEP for the GFK linker, it is also important to note that the remaining portions of the Indi 7327 were impervious to the enzyme.

[5] = Plasma protein binding (equilibrium dialysis), mouse; type: in vitro ADME, CD-1 mouse
Procedure: (§1) HTD 96 a/b regenerated cellulose membrane strips with mass cutoff of 12-14 kDa were soaked in ultra-pure water at room temperature for 1 hour. Each swelled membrane was then soaked in 20:80 ethanol:water for 20 minutes.
(§2) Just prior to the experiment, the membranes were re-soaked in ultra-pure water. Plasma was prepared by thawing under cold water. The plasma was centrifuged to remove any clots and pH was adjusted to 7.0-8.0. Test articles and control compounds were diluted to 2 μM. The dialysis device was loaded by transferring 150 μL of the test article (in triplicate) to the donor side. The dialysis device was placed in a humidified incubator at 37° C. with 5% CO2 in a shaking platform that rotated slowly for 4 hours. After incubation, 50 μL of the supernatant was taken from both sides and analyzed by LC-MS/MS.
(§3) To optimize the albumin binding potential of the heterobiligand, a plasma protein binding (PPB) experiment was performed. This experiment measured the amount of test article bound and free after equilibrating with plasma. Compound #6305 (folate-hshta-Lys(MPBA)-Gly-Phe-Lys(DOTA) (SEQ ID NO:6)), which contains the MPBA albumin binder, was 96.26% bound to mouse plasma and 98.34% bound to human plasma. […] In mouse and human plasmas 99.6% and 99.5% was bound, respectively.

[6] = Plasma protein binding (equilibrium dialysis), human; type: in vitro ADME
Procedure: as §1, §2, §3

[7] = system: OVCAR3 (FOLR+) cells; experiment: Fluorescence microscopy / live cell imaging of dye-labeled heterobiligand; type: cell-based, human; conditions: DyLight 650 label, OVCAR3 vs PC3
Excerpt: To further understand intracellular trafficking of the Nterm heterobiligand, these dye-labeled compounds were imaged by fluorescence microscopy. The cells were counterstained with BioTracker 490, which stains membranes, and Rab5a+, an endosomal stain. […] Low levels of DyLight650 was detected within PC-3 (FOLR1−) cells. Taken together, internalization of the heterobiligand appears to be receptor driven and selective for FOLR1 (+) cells.
(§4) Nonclinical studies were first conducted with Folate-hshta-PEG10-PEG10-K(Biotin), where Folate-hshta is the targeting heterobiligand, PEG10 is a deca(ethylene glycol) linker, and K(Biotin) is the detection label. […] Cross reactivity with the murine folate receptor was also observed. […] In the merged image, purple puncta were observed indicating co-localization of internalized heterobiligand with early endosomes (Rab5a+ vesicles) in OVCAR3 cells.

[8] = system: OVCAR3 cells; experiment: Cell internalization assay (acid wash, flow cytometry); type: cell-based, human; conditions: OVCAR3 cell line
Procedure: FIG. 10 is a diagram of an assay for assessing cell internalization FOLR1 heterobiligands.
The folate-hshta (SEQ ID NO:6) Nterm heterobiligand was also evaluated in cell penetration imaging assays (FIG. 10). OVCAR3 and PC-3 cells were incubated with the test article at 37° C. for 1 hour. Flow cytometry analysis of the resulting treated cells indicated strong binding to FOLR1 (+) cells. To understand the proportion bound to the surface but not internalized, the cells were briefly washed with acid to liberate the non-internalized peptide.
as §4

human recombinant NEP, sequence (P08473 whole entry): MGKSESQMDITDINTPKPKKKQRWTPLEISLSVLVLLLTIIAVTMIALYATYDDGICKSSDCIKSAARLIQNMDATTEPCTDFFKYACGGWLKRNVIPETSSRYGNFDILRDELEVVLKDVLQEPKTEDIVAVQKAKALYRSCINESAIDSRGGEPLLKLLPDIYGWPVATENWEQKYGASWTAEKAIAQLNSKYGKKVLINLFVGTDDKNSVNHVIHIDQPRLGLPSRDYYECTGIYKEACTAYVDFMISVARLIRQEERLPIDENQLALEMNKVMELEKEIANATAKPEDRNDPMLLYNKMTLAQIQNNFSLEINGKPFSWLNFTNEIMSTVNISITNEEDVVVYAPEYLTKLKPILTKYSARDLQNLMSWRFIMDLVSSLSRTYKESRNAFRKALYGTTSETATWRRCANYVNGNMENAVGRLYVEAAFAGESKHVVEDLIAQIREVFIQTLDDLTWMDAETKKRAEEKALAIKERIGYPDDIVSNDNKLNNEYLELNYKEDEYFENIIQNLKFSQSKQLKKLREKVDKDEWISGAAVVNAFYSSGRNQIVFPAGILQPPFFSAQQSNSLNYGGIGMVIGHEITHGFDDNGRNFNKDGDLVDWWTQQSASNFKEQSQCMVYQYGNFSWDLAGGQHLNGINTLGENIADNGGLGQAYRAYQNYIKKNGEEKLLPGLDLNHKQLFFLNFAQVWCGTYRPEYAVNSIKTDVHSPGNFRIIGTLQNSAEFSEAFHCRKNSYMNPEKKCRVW

half-life at 2 μM ([1]; 2 μM, 37° C.): 0.747 h | half-life at 2 μM ([2]; 2 μM, 37° C.): 0.193 h
Compound: CC(C)[N+](C)(CCOC(=O)C1c2ccccc2Oc2ccccc21)C(C)C [Propantheline bromide, reference compound]

Compound: C[C@H](O)[C@H]1NC(=O)[C@@H](Cc2c[nH]cn2)NC(=O)[C@@H](CO)NC(=O)[C@@H](Cc2c[nH]cn2)NC(=O)[C@@H](NC(=O)CC[C@H](NC(=O)c2ccc(NCc3cnc4nc(N)[nH]c(=O)c4n3)cc2)C(=O)O)Cc2cn(nn2)CCCC[C@@H](C(=O)N[C@@H](CCCCNC(=O)CCCc2ccc(I)cc2)C(=O)NCC(=O)N[C@@H](Cc2ccccc2)C(=O)N[C@@H](CCCCNC(=O)CN2CCN(CC(=O)O)CCN(CC(=O)O)CCN(CC(=O)O)CC2)C(=O)O)NC(=O)[C@@H](C)NC1=O [^68Ga-chelated compound #1307, metal not drawn] ({Pteroyl-γGlu}-[Pra][dH][dS][dH][dT][dA][Lys(N3)]K(Butanoyl(4-(4-I-phenyl)))GFK(DOTA)-OH; triazole 1-7)
heart exposure compared to compound #2809 [3]: less than two-fold increase | kidney absorption [3]: very low kidney absorption | kidney dose compared to compound #2809 [3]: seven-fold reduction | lung accumulation compared to compound #2809 [3]: greater than three-fold increase

Compound: C[C@H](O)[C@H]1NC(=O)[C@@H](Cc2cnc[nH]2)NC(=O)[C@@H](CO)NC(=O)[C@@H](Cc2cnc[nH]2)NC(=O)[C@@H](NC(=O)CC[C@H](NC(=O)c2ccc(NCc3cnc4nc(N)[nH]c(=O)c4n3)cc2)C(=O)O)Cc2cn(nn2)CCCC[C@@H](C(=O)NCC(=O)N[C@@H](Cc2ccccc2)C(=O)N[C@@H](CCCCNC(=O)CON)C(=O)O)NC(=O)[C@@H](C)NC1=O [compound 3303, Fol-hshta-Gly-Phe-Lys(AO)] ({Pteroyl-γGlu}-[Pra][dH][dS][dH][dT][dA][Lys(N3)]GFK(X2)-OH; triazole 1-7)
in vitro Assay Data (NEP assay) [4]: Cleavage of -G-F-K- | half-life at 2 μM ([1]; AO construct marked (FB)): > 116 h | half-life at 2 μM ([2]; AO construct marked (FB)): > 116 h

Compound: C[C@H](O)[C@H]1NC(=O)[C@@H](Cc2c[nH]cn2)NC(=O)[C@@H](CO)NC(=O)[C@@H](Cc2c[nH]cn2)NC(=O)[C@@H](NC(=O)CC[C@H](NC(=O)c2ccc(NCc3cnc4nc(N)[nH]c(=O)c4n3)cc2)C(=O)O)Cc2cn(nn2)CCCC[C@@H](C(=O)NCCOCCOCCOCC(=O)N[C@@H](CCCCNC(=O)CO/N=C/c2ccc(F)cc2)C(N)=O)NC(=O)[C@@H](C)NC1=O [compound #2, Fol-hshta-PEG3-Lys(FB)] ({Pteroyl-γGlu}-[Pra][dH][dS][dH][dT][dA][Lys(N3)][AEEEA]K(X3)-NH2; triazole 1-7)
recovery [5]: 115% | fraction unbound ([5]; mouse, plasma): 0.798 | half-life ([1]; mouse, Plasma Stability (t 1/2), 2 μM, 37° C.): > 4.82 h | recovery [6]: 85% | fraction unbound ([6]; human, plasma): 0.57 | half-life ([2]; Plasma Stability (t 1/2), 2 μM, 37° C.): > 4.82 h

Compound: heterobiligand labeled with DyLight 650: folate-hshta Nterm heterobiligand labeled with the dye DyLight 650 ([dH][dS][dH][dT][dA]; not fully specified (N-terminus); printed as hshta; also: labeled with DyLight 650, place not given here, heterobiligand)
internalization / intracellular localization [7]: internalization with clear preference for early endosomes | internalization / intracellular localization ([7]; listed as DyLight650-labeled peptide-folate heterobiligand): Selective internalization into OVCAR3 (FOLR+) cells | internalized fraction in acid wash (pH 3.0) assay [8]: high percentage
